Measurements reported in PMC4731787, “Structural basis for the recognition of two consecutive mutually interacting DPF motifs by the SGIP1 μ homology domain” (Scientific Reports, 2016).
Where two headings read alike, the source gives them in different places. Where no end group is shown, it is not given here. GST = glutathione S-transferase fusion tag

Columns and labels:
[1] = biological target: T1, SGIP1 μHD (residues 552 to 828) (Homo sapiens, UniProt Q9BQI5); test: ITC of Eps15 fragments with the SGIP1 μHD; format: binding; settings: for Kd: 50 mM Tris-HCl pH 8.0, 50 mM NaCl, global fit of two runs
T1 construct: the SGIP1 μHD (residues 552 to 828); GST (N, cleaved yes); made in house; host or cells: Escherichia coli BL21-Gold (DE3) or Rosetta2
T1 sequence (Q9BQI5 552-828): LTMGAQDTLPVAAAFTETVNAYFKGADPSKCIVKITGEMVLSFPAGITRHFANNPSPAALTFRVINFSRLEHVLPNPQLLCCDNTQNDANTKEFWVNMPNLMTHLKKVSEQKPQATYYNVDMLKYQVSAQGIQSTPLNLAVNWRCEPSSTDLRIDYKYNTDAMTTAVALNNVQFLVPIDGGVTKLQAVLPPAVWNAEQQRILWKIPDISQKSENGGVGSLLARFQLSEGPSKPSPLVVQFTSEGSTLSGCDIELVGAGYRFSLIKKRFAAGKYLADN
Method: (§1) For the majority of the ITC experiments, the SGIP1 μHD, its mutants, or the FCHo1 μHD, in 50 mM Tris-HCl buffer (pH 8.0) containing 50 mM NaCl, was loaded in the sample cell, in a volume of 1.42 ml, and titrated with various Eps15-derived fragments or peptides in the same buffer, with an initial 5 μl injection and subsequent 10 μl injections, for a total of 25 injections. The titrations were performed while the samples were stirred at 310 r.p.m. at 25 °C. Each injection was followed by an interval of 4 min, to allow baseline stabilization. For the other ITC experiments indicated in Supplementary Table 2, the Eps15-derived fragments or peptides in the sample cell were titrated with the SGIP1 or FCHo1 μHD. All ITC experiments were performed on a VP-ITC microcalorimeter (MicroCal, LLC) and repeated twice, and the data were processed with the program NITPIC[42]. The two data sets from each ITC experiment were analyzed by global weighted least-squares fitting with the program SEDPHAT[43]. Figures for the ITC data were created with the program GUSSI (http://biophysics.swmed.edu/MBR/software.html). To obtain the values of the traditional stoichiometric parameter N in our ITC data analyses (Supplementary Table 2), we used the values of the parameters of the incompetent fractions of proteins and ligands. […] The values of the incompetent fractions are between 0 and 1, whereas the other parameter affecting the traditional parameter N, the number of sites, was fixed as 1 and 2, for the single- and two-site models, respectively. Thus, in the two-site model, the values of N for the first and second sites are identical in our ITC data analyses (Supplementary Table 2).

[2] = biological target: T2, FCHo1 µHD (residues 623 to 889) (Homo sapiens, UniProt O14526); test: ITC of Eps15 fragments with the FCHo1 μHD; format: binding; settings: for Kd / -TΔS / ΔG / ΔH: 25 °C; for Kd: 50 mM Tris-HCl pH 8.0, 50 mM NaCl, global fit of two runs; for Kd / -TΔS / ΔG / ΔH / N (binding ratio of Eps15 fragment to FCHo1 μHD): single-site model; for Kd / ΔH / N (binding ratio of Eps15 fragment to FCHo1 μHD): ± 68.3% confidence interval
T2 construct: GST (N, cleaved yes); made in house; host or cells: Escherichia coli (as for the SGIP1 μHD)
T2 sequence (O14526 623-889): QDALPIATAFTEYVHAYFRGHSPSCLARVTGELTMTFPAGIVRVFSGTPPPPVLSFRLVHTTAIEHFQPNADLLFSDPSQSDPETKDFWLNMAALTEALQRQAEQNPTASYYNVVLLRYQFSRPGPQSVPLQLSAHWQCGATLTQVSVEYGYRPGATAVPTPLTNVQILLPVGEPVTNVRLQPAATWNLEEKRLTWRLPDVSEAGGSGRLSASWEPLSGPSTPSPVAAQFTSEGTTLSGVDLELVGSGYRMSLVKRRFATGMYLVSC
Method: as §1

[3] = biological target: α-adaptin appendage domain (residues 711 to 955); test: ITC of Eps15 fragments with the α-adaptin appendage domain; format: binding, human
[4] = biological target: appendage domain of human α-adaptin, residues 711 to 955 (human) (UniProt O95782); test: ITC; µHD, µHD mutant or α-adaptin appendage domain in the sample cell, titrated with the Eps15 fragment or peptide; 50 mM Tris-HCl (pH 8.0), 50 mM NaCl, 25 °C; VP-ITC; two data sets fitted globally (NITPIC, SEDPHAT); single-site model
[5] = biological target: T3, SGIP1 µ homology domain (µHD), residues 552 to 828 (human, UniProt Q9BQI5-1 552-828); test: as above; settings: both partners purified
T3 construct: pGEX-6P-1 construct cut with 3C protease; also called SGIP1 µHD; human SGIP1 µHD (aa552–828); source: E. coli BL21-Gold (DE3) or Rosetta2, purified (Glutathione Sepharose 4B, 3C protease cleavage, Superdex 200)
T3 sequence (looked up): T1 sequence (Q9BQI5 552-828)

[6] = biological target: T4, FCHo1 µ homology domain (µHD), residues 623 to 889 (human, UniProt O14526-1 623-889); test: as above; settings: both partners purified
T4 construct: also called FCHo1 µHD; human FCHo1 µHD (aa623–889); source: E. coli, expressed and purified in the same manner as the SGIP1 µHD
T4 sequence (looked up): T2 sequence (O14526 623-889)

[7] = biological target: T5, SGIP1 μ homology domain (residues 552 to 828) (human, UniProt Q9BQI5-1 552-828); test: ITC; VP-ITC, 25 °C, 50 mM Tris-HCl pH 8.0, 50 mM NaCl; for the majority the μHD (SGIP1, its mutants or FCHo1) in the cell, titrated with Eps15 fragments or peptides, for others the reverse (Supplementary Table 2); repeated twice, global fit with SEDPHAT, single-site or two-site model; settings: both partners purified
T5 construct: A SeMet-substituted form (E. coli B834(DE3)) was used only for the structure of the domain alone; also called SGIP1 μHD; μHD; source: E. coli BL21-Gold (DE3) or Rosetta2, purified (Glutathione Sepharose, 3C protease cleavage on the column, Superdex 200)
T5 sequence (looked up): T1 sequence (Q9BQI5 552-828)

[8] = 25 °C, fragment in cell titrated with μHD, single-site model
[9] = 25 °C, fragment in cell titrated with μHD, two-site model, first site
[10] = 25 °C, fragment in cell titrated with μHD, two-site model, second site
[11] = FCHo1 μHD in cell titrated with fragment
[12] = fragment in cell titrated with μHD (Experiment 37a)

For “Eps15-618–654: Eps15 fragment, 37-residue region containing six consecutive DPF motifs; high-affinity binding site (DFFQSDPFVGSDPFKDDPFGKIDPFGGDPFKGSDPFA; UniProt P42566 618-654, looked up, fragment)”, the Kd ([1]; 25 °C, Eps15 fragment in cell titrated with SGIP1 μHD, two-site model, second site, 68.3% confidence interval, read-out: Kd, second site) was 55500 nM, the Kd ([1]; 25 °C, Eps15 fragment in sample cell titrated with SGIP1 μHD, single-site model, ± 68.3% confidence interval, read-out: Kd) was 420 ± 250 nM and the “-TΔS” value [1, 8] was 0.278 kcal/mol. The ΔG [1, 8] was -8.704 kcal/mol, the ΔH ([1]; 25 °C, fragment in cell titrated with μHD, single-site model, ± 68.3% confidence interval) was -8.982 ± 0.639 kcal/mol and the “-TΔS” value [1, 9] was -2.345 kcal/mol. For the same molecule, the ΔG [1, 9] was -9.805 kcal/mol, the ΔH ([1]; 25 °C, fragment in cell titrated with μHD, two-site model, first site, ± 68.3% confidence interval) was -7.46 ± 0.168 kcal/mol and the “-TΔS, second site” value [1, 10] was 3.722 kcal/mol. For the same molecule, the “ΔG, second site” value [1, 10] was -5.906 kcal/mol, the “ΔH, second site” value ([1]; 25 °C, fragment in cell titrated with μHD, two-site model, second site, 68.3% confidence interval) was -9628 (< -6103) cal/mol and the “N (binding ratio of Eps15 fragment to μHD)” value ([1]; fragment in cell titrated with μHD, single-site model, ± 68.3% confidence interval) was 0.81 ± 0.04. For the same molecule, the “N (binding ratio of Eps15 fragment to μHD)” value ([1]; fragment in cell titrated with μHD, two-site model, first site (N identical for both sites), ± 68.3% confidence interval) was 0.88 ± 0.02, the “N, second site” value ([1]; fragment in cell titrated with μHD, two-site model, second site (N identical for both sites), ± 68.3% confidence interval) was 0.88 ± 0.02 and the Strength of affinity ([1]; human SGIP1 µHD (aa552–828), Supplementary Table 3, This study) was “high”. The “Kd for the FCHo1 μHD (in words)” value [2] was “in the nanomolar range”, the Kd ([2]; Eps15 fragment in cell titrated with μHD (Experiment 37a)) was 190 ± 90 nM and the Kd [2, 11] was 270 ± 100 nM. The “-TΔS” value [2, 11] was 0.672 kcal/mol, the ΔG [2, 11] was -8.966 kcal/mol and the ΔH [2, 11] was -9.638 ± 0.381 kcal/mol. The “-TΔS” value [2, 12] was -1.572 kcal/mol, the ΔG [2, 12] was -9.158 kcal/mol and the ΔH [2, 12] was -7.586 ± 0.398 kcal/mol. The “N (binding ratio of Eps15 fragment to FCHo1 μHD)” value [2, 11] was 0.59 ± 0.02, the “N (binding ratio of Eps15 fragment to FCHo1 μHD)” value [2, 12] was 0.70 ± 0.03 and the Strength of affinity ([2]; human FCHo1 µHD (aa623–889), Supplementary Table 3, This study) was “high”.

In the case of “Eps15-661–720: Eps15 fragment spanning residues 661 to 720, 4 DPF motifs (QSTDPFATSSTDPFSAANNSSITSVETLKHNDPFAPGGTVVAASDSATDPFASVFGNESF; UniProt P42566 661-720, looked up, fragment)”, the “Kd for the α-adaptin appendage domain (in words)” value [3] is reported as “in the nanomolar range”, the Kd ([3]; 25 °C, appendage domain titrated with Eps15 fragment, single-site model, global fit of two runs, ± 68.3% confidence interval) is reported as 270 ± 130 nM and the “-TΔS” value ([3]; 25 °C, single-site model) is reported as 5.961 kcal/mol. The ΔG ([3]; 25 °C, single-site model) was -8.97 kcal/mol and the ΔH ([3]; 25 °C, single-site model, ± 68.3% confidence interval) was -14.931 ± 1.892 kcal/mol.

B1: Eps15-661–790 (domain or fragment)
chain: GPLGSYQSTDPFATSSTDPFSAANNSSITSVETLKHNDPFAPGGTVVAASDSATDPFASVFGNESFGGGFADFSTLSKVNNEDPFRSATSSSVSNVVITKNVFEETSVKSEDEPPALPPKIGTPTRPCPLPPGKRSW
In the case of B1, the Kd [4] is reported as 690 nM and the stoichiometry N [4] is reported as 1.19.

B2: Eps15-661–720 (domain or fragment)
chain: GPLGSYQSTDPFATSSTDPFSAANNSSITSVETLKHNDPFAPGGTVVAASDSATDPFASVFGNESF
B2 showed a Kd [4] of 270 nM and a stoichiometry N [4] of 0.47.

B3: Eps15-640–654 (peptide)
peptide: Ac-YDPFGGDPFKGSDPFA-NH2
notes: artificial N-terminal Tyr; source: synthetic peptide (Eurofins Genomics)
In the case of B3, the Kd [5] is reported as 2900 nM, the “stoichiometry N” value [5] is reported as 0.66 and the “stoichiometry N” value [6] is reported as 0.64.

B4: Eps15-662–676 (peptide)
peptide: Ac-YSTDPFATSSTDPFSA-NH2
notes: as for B3
B4 gave a Kd [5] of 125000 nM.

B5: GST-Eps15-628–654 (domain or fragment, human)
chain: {GST}-SDPFKDDPFGKIDPFGGDPFKGSDPFA
notes: source: E. coli, purified (Glutathione Sepharose 4B, glutathione elution, Superdex 200); not shown: GST, N-terminal, kept
For B5, the Kd [5] was 1000 nM and the “stoichiometry N” value [5] was 0.86.

B6: Eps15-628–654 (peptide)
peptide: Ac-YSDPFKDDPFGKIDPFGGDPFKGSDPFA-NH2
notes: as for B3
In the case of B6, the “stoichiometry N” value [5] is reported as 0.67.

B7: GST-Eps15-628–644 (domain or fragment, human)
chain: {GST}-SDPFKDDPFGKIDPFGG
notes: as for B5
In the case of B7, the Kd [5] is reported as 650 nM and the “stoichiometry N” value [5] is reported as 0.92.

B8: Eps15-618–648 (domain or fragment, human, UniProt P42566-1 618-648, looked up)
chain: DFFQSDPFVGSDPFKDDPFGKIDPFGGDPFK
notes: source: E. coli, purified in the same manner as for the SGIP1 μHD
B8 gave a Kd [7] of about 400 nM.
